The results in this text go back to the DeepSol protein solubility set.

A short description of the series: soluble on expression in E. coli; label from the status in PepcDB or PDB records.
For “MKRCLDKGKTMDALKHALQMLNEMRTAELSPKFYYRLYMDSMHELQCLEVNLVQEYAQEPAKLGNLYECVQYASAIIPRLYLLVTIGGVFIKCGLGSRKEILKDLVEMCRGVQHPLRGLFLRNYLMQCTRSVLPDFPETEEMLVAHNDNLSKGTPKLKPRDGTVDDTIDFVLINFAEMNKLWVRMQHQGPSKEKEKREKDRMELRILVGTNLVRLAQLEALTEEMYVKDVLPSILEQIVSCRDPISQEYLMECVIQVFADDFHLATLTEFLNACGQLQQDVNIKILLIALVDRLALYTTSYNEGQPAPTKMQLFEIFSEQATTLIKNRPDMPLDDIVALHVSLVSLAVKCYPDRQDYANMTFQGLRQVIEEKGVTDIEAFGKVGRELTKLLNIPIDEYKNVLRLSQLPEYIKVMNYFDYRGQCNIASYMIQNMLEEETVFRNQDDVDSAFSLISSLLKDQEKQSSDSHETEEFADEQNLVARLLHLIRADDVDSQFLLLNSARKTLGEGGRHRLRYTLPPIIFELYRLVLQFSDMKDEDDKWDAKIRKMFVCAMGTIGALVSTAELAELPMKLYLNGAITADRVPFEDNHTVVYEFVSKALSILEDDVVDSRDRVRCLHLTVGTLLKTTHLPEENWQPLANQTVLAAAKMFKKPDQVRSLVTVAALYWHGQTLETNGEKMKNGKKVVDILRKAAKIARECLEPLVQQQLFIQLLSAYTYYYEDNCSEVNVDHIEELIARTQDNAVQLDVSAEADSLEKQLGEAIRRLQLAKLDVAAAQATTIRSEPELPQPPS”, the “soluble on expression in E. coli” value is recorded as “soluble”.
Under “MKRFFALVHKDEDSAFGVQFPDFEGLFSAADEEENLIINATEALQLYCEDMDTVPVPLKFEEVIQQKAVKKALSEGAFLIQVPFIENDSEVVRTNISIERGLLRAIDNCAQERGLTRSAFLATAARHELNI” stands “not soluble”; under “MKRFFLKTILAAFCVYVPAILNTAYACTRIVYQGPNGTIITARSMDWKGEIPANLWIFPRGIERNGEAGSTSVKWKSTYGSVITSSWDIASSDGMNEKGLVGNLLWLVESTYPKFVKDKDKPGLAVSLWLQYVLDNFATVSEAVAFLEKEPFVVASSHIPGTAIFATVHLSISDATGDNAIFEYIGGKLVIHHDRSYVTMTNSPVFDEQLAINTYWKNIPGTVMLPGTNRAADRFVRASYYIDAIPKTDNTRVALPSVFSVIRNCSVPLGISSEAEPNISSTRWRTVSDQKNLVYYFDNVLNPNVVWVEFSKIDFSEKAKVKKLTLANNENYSGEASMNFKAALPFTFAGLD”, “not soluble”; under “MKRKPAVAGYFYPERKDELYSLLSSFAIPEQHVSGTIIGAVVPHAGIIYSGRTAMYSYRAIEKSAVRDFVIIGPNHRPLTPYASLYPEGEWSTPLGDALINDRMAEALYRDSNYIVKDEESHLMEHSVEVQIPFLQYLFGDGFRFVPVILGDQEIDVARDIGEAIMKIEDPFIFIASSDFTHYEDAKRVEKKDMDLISAILTLDLDKFYSVLEKENVTACGYGAIAALMYYTKKRGGRMIFLNHSNSGDVTGDYSEVVGYASLVSVIPLEHHHHHH”, “soluble”.
For the sequence “MKRLILPIACGICTVTSDAQTDKQPHPNVIFIYADDLGYKDLSCTGSRFYETPHIDKLAREGVCFTQSYAACPVSSPSRAALLTGKYPARINLTDYIPGDRAYGPHKNQRLASLPFNLHLSKDEITMAEAFRQNGYSTFMAGKWHLAESAEYYPEQNGFDINIGGNNTGHPSKGYFSPYGNPQLKDGPEGEYLTDRLTDEVIRYISEPKEKPFFVYLSYYTVHLPLQAKAEKIAKYRRKLSRAVPADSSFVKKGETYHKLVQDIPAYAAMVESLDENIGRLLDTLHRSGLDERTIVVFTSDNGGMATSNTTRNIPTSNLPLRAGKGYLYEGGIKVPAIIRWSGHLKGRQVSDTPIIGTDYYPTLLDLCGLPLLPGQHVDGVSMKPVLQGGRLSRPSLFWHYPHYSGGLGGRPSAAIREGDYKLIEFFEDHHVELYNVIQDESEEKDLSQIYPEIADGLRKKLYLWYKEVGARMPVDNPHYVSPVKDSDSFENKLEHHHHHH”, the “soluble on expression in E. coli” value is reported as “not soluble”.
For “MKRLKNELNALVNRGVDRHLRLAVTGLSRSGKTAFITAMVNQLLNIHAGARLPLLSAVREERLLGVKRIPQRDFGIPRFTYDEGLAQLYGDPPAWPTPTRGVSEIRLALRYKSNDSLLRHFKDTSTLYLEIVDYPGEWLLDLPMLAQDYLSWSRQMTGLLNGQRGEWSAKWRMMCEGLDPLAPADENRLADIAAAWTDYLHHCKQQGLHFIQPGRFVLPGDMAGAPALQFFPWPDVDAWGESKLAQADKHTNAGMLRERFNYYCEKVVKGFYKNHFLRFDRQIVLVDCLQPLNSGPQAFNDMRLALTQLMQSFHYGQRTLFRRLFSPVIDKLLFAATKADHVTIDQHANMVSLLQQLIQDAWQNAAFEGISMDCLGLASVQATTSGIIDVNGEKIPALRGNRLSDGAPLTVYPGEVPARLPGQAFWDKQGFQFEAFRPQVMDVDKPLPHIRLDAALEFLIGDKLR”, the “soluble on expression in E. coli” value was “not soluble”.
As to “MKRNGETKRRRNVAEEAEQGEDPAMWENLDRNFRQVQSVLDRNRSLIQQVNDNHQSRMADNMSKNVALIQELNGNISKVVNMYSDLNTSFSSGFHGGKNGHDGGGAAGTRA”, the “soluble on expression in E. coli” value was “soluble”.
Consider “MKSFQLVATAASGLEAIVGKEVARLGYDPKVENGKVYFEGDLSAIARANLWLRVADRVKIVVGVFKATTFDELFEKTKALPWEDYLPLDAQFPVAGKSVKSTLYSVPDCQAIVKKAIVNRVSEKYRRSGRLMETGALFKLEVSILKDEVTLTIDTSGAGLHKRGYRLAQGSAPIKETMAAALVLLTSWHPDRPFYDPVCGSGTIPIEAALIGQNIAPGFNREFVSETWDWMPKQVWADARQEAEDLANYDQPLNIIGGDIDARLIEIAKQNAVEAGLGDLITFRQLQVADFQTEDEYGVVVANPPYGERLEDEEAVRQLYREMGIVYKRMPTWSVYVLTSYELFEEVYGKKATKKRKLYNGYLRTDLYQYWGPRKPRPKKED”, for which the “soluble on expression in E. coli” value was “soluble”.
“MKSGIYQIKNTLNNKVYVGSAKDFEKAWKRHFKDLEKGCHSSIKLQRSFNKHGNVFECSILEEIPYEKDLIIERENFWIKELNSKINGYNIADATFG”: the “soluble on expression in E. coli” value is “soluble”.
Take “MKSKVAIVRTKPSTVLEDYHRLMNLAEYQNYISKDVDTALKINISWHFFYPGSSTTPWQLEGVIRALKRDGYNPELIHGCHNRTVVIDAHLGERENKQINVIKAHNLRNIHLYEGEEWIDIREAVGDLTKKFLCLNEVYPKGFSIPKRFIGENIIHLPTVKTHVFTTTTGAMKNAFGGLLNEKRHWTHPVIHETLVDLLMIQKKIHKGIFAVMDGTFAGDGPGPRCMVPHVKNVLLASADQVAIDAVAAKLMGFDPLKDCKYIRLAHDAGLGCGDVRQIEIVGDVDALNENWNFVGPYKKMTFASKCQHLIYWGPLKKPVEWTLKTILAPWSYIASVVYHDMYWYPKNYGRVEEILNSDWGRLFANWEQLQLPADDLSVPGWEHVGDKPLKLDKETSKMIRKAFRVLGTAIREAPEFSAKKSKKACK”: the “soluble on expression in E. coli” value is “soluble”.
Take “MKSLQIYLFLFLSVFALGACIQNDIPYPYIKGEITAFEVEGQTGDAEINKNSRTIVVEVGDEVDIEELRITRFVVNEEATYSIDEQYCVSPNKFPSAGFSALADLPAGADTRVDFSKTVPVLLRTYQDYQWMITVKQTIERVVEVENQALPAIIDDKNHTVLVYVSQKQDLSAVKITKMILGGSKATITPDPSTVTNFRRPQEFVVNRFDKEELWTVDVVRTTSTGTTGSADVWATRATLNGGMKQGTTPRVEYRKKSEDTWTVVPETDVKLESGTTFSTTLTGLQDGTDYVWRVVVEEVPSTESGFTTEKIQEIPNLNFDTWSQNPTGTFKKSWYPNADGSNSFWATGNDGVTSSLAGSRDSSTRPEEKSVVNGKAAYMVTLGSVPLVGVAAGNLFIGDYKTNAQSPKDSPKFGRSFTGARPTGLKGWYKYTSKPVDYVGNPDNLKNDECHIYLRLWDDKDNEIGYGEFIGKETVTQYTQFRFDVTYTNKTAKPAKITIVATSSHYGGDFTGMKVTGSVGVGSELWVDEFELLYELEHHHHHH”: the “soluble on expression in E. coli” value is “soluble”.
As to “MKSSKASEEDLAAATEKMQSMKGKKSQAAAALEAEQAKAEKRLSCLLKARTKLSFRVIRDGIKCHGGIHLKKQSEKAELDISVTNTAINNLPSDADIVITHKDLTDRAKAKLPNATHISVDNFLNSPKYDELIEKLKSNLIEREYCHASTRKGNIKLNQTVSSKEEAIKLAGQTLIDNGYVTEDYISKMFDREETSSTFMGNFIAIPHGTEEAKSEVLHSGISIIQIPEGVEYGEGNTAKVVFGIAGKNNEHLDIL”, the “soluble on expression in E. coli” value is listed as “soluble”.
“MKSTDQFQTHEVPWEEFIEALREEMKKQVGADIIDTVVCNLEDGFEVYTYVQGDLDFEYKEALERKYGSDAKTPNVLTIMLLASIYNTSEENIRLHADHKENPIVEVYVKQGNTL”: the “soluble on expression in E. coli” value is reported as “not soluble”.
Take “MKSVTSAQRPYQEVGAMIHDLIIKTPYNPGERLPPEREIAEMLDVTRTVVREALIMLEIKGLVEVRRGAGIYVLDSSGSHNTDSPDANVCNDAGPFELLQARQLLESNIAEFAALQATREDIVKMRQALQLEERELASSAPGSSESGDMQFHLAIAEATHNSMLVELFRQSWQWRENNPMWIQLHSHLDDSLYRKEWLGDHKQILAALIKKDARAAKLAMWQHLENVKQRLLEFSNVDDIYFDGYLFDSWPLDKVDA”: the “soluble on expression in E. coli” value is given as “not soluble”.
Turning to “MKTFGLLGGLAYPSTAEYYLKINRQVHATLGKHHSAPLWIHSFDFEPIAQAQASGSWTILEEKLLQAALELERLGCQGLAIASNTMHLLAPALEGALSIPLVHIADSVGEESSLKGYKKLALLGTLFTMEKDFYASRLQERFDLEVITPAKEERNLVHECIYRELVNNIFTEDSRRDFIQIIHGLKERGAEAVILGCTEIPLLLEGASSPLPLLDTMELHVGSIVQSILEI”, the “soluble on expression in E. coli” value is on record as “not soluble”.
“MKTGVTGPYTFGVGLITYLCSKEIYVMEHEYYSGLSLGIMAIIAVKKLGPVIAKWADGEIDKIESEWKEGREAELKVLSDAIEAEKKEQWRADGALLLMEAKKENIALQLEAAFRERAMNVYSEVNRPLDYQVECRHVERRLSQKHMVNWITTNVLASISPQQEKETLNKCIADLSALALRVKSALEHHHHHH”: the “soluble on expression in E. coli” value was “not soluble”.
For “MKTIRLTTAQALVKFLNQQYVEFDGHIQKFVKGIFTIFGHGNVLGLGQALEEDPGELEVYQGRNEQGMAHAAIAFAKQKHRRQIMACTSSVGPGAANMVTAAATASANHIPVLLLPGDTFATRQPDPVLQQIEHWHDLTVSTNDAFRAVSKYWDRISRPEQLMSAMIQAMRVLTDPANTGAVTIALPQDVQGEAYDFPESFFQKRIHRIERRVPAKAAIHEAVELIRRKKKPIIICGGGVRYSEAAEELKQFAEKFHIPYGETQAGKSAVESAHPYNLGGIGVTGNLAANIIAKEADLVIGIGTRYTDFTTGSKQLFQHPEVEFLTINVSVFDACKLDAVRVVADAKLALLALTEELEKIGYRSGYTNEIDIAKKAWEEELNRLHHVRYRQSGFQPEVAGHLDEVLTEYSEFFDSSLTQTEVIGAINEWIDDDAIIIGAAGSLPGDLQRMWVARRPNTYHMEYGYSCMGYEIAGALGVKMAEPDKEVYAMVGDGSYLMLHSELVTSIQEKKKINVLLFDNGGFGCINNLQMGHGMGSFATEFRYRNEETGRLDGSLIPIDFAQSAAGYGVKTYKVHTLEQLKEALEDAKQQSVSTLIDIKVLPKTMTHDYESWWHVGVAEVSRNPKIAEAYKRKEQQLQRARKY” the value was “soluble”; for “MKTLLSLGHGYSAQALAHRLLPQGWTVIGTTRSAAKAAELEAGGIEPLLWPGDLGPALARASHILASAAPGREGDPFLATHGAELARADARWVGYLSTTGVYGDHAGGWVDEDTPLTPSTERGQARVQAERQWQALGLPLHIFRLAGIYGPGRGPFEKVRDGTARRIVKPGQVFSRIHVADIAQVLEASMQHPEPGAIYNVCDDDPAPPEDVLGYAAELLGLPPPPEVPYDEAEMTPMARSFYAESKRVRNDRIKARLGIALLHPDYRSGLRSLLAGGD”, “not soluble”.
